{
  "source": "patent US5726017",
  "key": {"[1]": {"target": "GST-gag (HIV-1 gag polyprotein, strain LAI) (HIV-1 (LAI)) (UniProt P03348)", "test": "filter", "conditions": "for Kd: 5 mM MgCl2, 37 C"}, "[2]": {"target": "GST-gag (HIV-1 gag polyprotein, strain LAI) (HIV-1 (LAI)) (UniProt P03348)", "test": "competition", "conditions": "1 nM gag, scale: fold excess unlabeled Psi for 50% competition"}, "[3]": {"test_system": "glutathione S-transferase (GST)", "test": "filter", "conditions": "GST alone, low affinity"}, "[4]": {"conditions": "50 mM Tris pH 7.5, 140 mM KCl, 5 mM NaCl"}},
  "data": [
    {"substance": "GGGAAAAGCGAAUCAUACACAAGANNNNNNNNNNNNNNNNNNNNNNNNNNNNNNNNNNNNNNNNNNNNNNNNNNGCUCCGCCAGAGACCAACCGAGAA [SELEX B round 0 RNA pool]", "values": [
      {"measurement": "Kd", "setting": "[1]; [4]", "value": 1000, "unit": "nM"}
    ]},
    {"substance": "GGGAAAAGCGAAUCAUACACAAGANNNNNNNNNNNNNNNNNNNNNNNNNNNNNNNNNNNNNNNNNNNNNNNNNNGCUCCGCCAGAGACCAACCGAGAA [SELEX B round 4 RNA pool]", "values": [
      {"measurement": "Kd", "setting": "[1]; [4]", "value": 8.5, "unit": "nM"},
      {"measurement": "fold excess of unlabeled Psi for 50% competition", "setting": "[2]; 150 pM labeled pool", "value": 74}
    ]},
    {"substance": "GGGAAAAGCGAAUCAUACACAAGANNNNNNNNNNNNNNNNNNNNNNNNNNNNNNNNNNNNNNNNNNNNNNNNNNGCUCCGCCAGAGACCAACCGAGAA [SELEX B round 8 RNA pool]", "values": [
      {"measurement": "Kd", "setting": "[1]; [4]", "value": 1.1, "unit": "nM"},
      {"measurement": "fold excess of unlabeled Psi for 50% competition", "setting": "[2]; 150 pM labeled pool", "value": 630}
    ]},
    {"substance": "GGGAGACAAGAAUAAACGCUCAANNNNNNNNNNNNNNNNNNNNNNNNNNNNNNNNNNNNNNNNNNNNNNNNNNUUCGACAGGAGGCUCACAACAGGC [SELEX A round 0 RNA pool]", "values": [
      {"measurement": "binding signal (% bound at 10 nM gag)", "setting": "[1]; 4.0% at 0.1 nM, 6.0% without gag, negative control", "value": 3.5}
    ]},
    {"substance": "GGGAGACAAGAAUAAACGCUCAANNNNNNNNNNNNNNNNNNNNNNNNNNNNNNNNNNNNNNNNNNNNNNNNNNUUCGACAGGAGGCUCACAACAGGC [SELEX A round 10 RNA pool]", "values": [
      {"measurement": "Kd", "setting": "[1]; 50 mM Tris pH 7.5, 200 mM KOAc, 10000-fold tRNA", "value": 1.5, "unit": "nM"}
    ]},
    {"substance": "GGGAGACAAGAAUAAACGCUCAAUCUCGUAUCAGCACACCGGUACAAAGAGGAUGCAAAUNCGCCUGUGACUUCGACAGGAGGCUCACAACAGGC [SW10.12]", "values": [
      {"measurement": "binding signal (% bound at 10 nM gag)", "setting": "[1]; 0.6% at 0.1 nM, 0.6% without gag", "value": 11.2}
    ]},
    {"substance": "HIV-1 Psi RNA (456 nt, transcribed from XhoI-linearized pBsPVR789)", "values": [
      {"measurement": "binding signal (% bound at 10 nM gag)", "setting": "[1]; 13.4% at 0.1 nM, 14.7% without gag, positive control", "value": 87},
      {"measurement": "Kd", "setting": "[1]; SELEX A experiment, 50 mM Tris pH 7.5, 200 mM KOAc", "value": 1.1, "unit": "nM"},
      {"measurement": "Kd", "setting": "[1]; SELEX B experiment, 50 mM Tris pH 7.5, 140 mM KCl, 5 mM NaCl", "value": 5.2, "unit": "nM"},
      {"measurement": "fold excess of unlabeled Psi for 50% competition", "setting": "[2]; 150 pM labeled Psi", "value": 20}
    ]},
    {"substance": "random RNA", "values": [
      {"measurement": "Kd", "setting": "[3]", "value": "> 10000", "unit": "nM"}
    ]}
  ]
}
